Measured values: patent US20230416330A1, “Optimized GIP Peptide Analogues” (Antag Therapeutics ApS, priority 2019, published 2023)
Starred links: 1 amine or outer side, 2 acyl side, 3 side chain; linkers in the order of their positions; H or OH if unused. Non-standard residues stand in square brackets, D forms with d. Residues, ends and D or L forms follow the SMILES beside them. Groups on a side chain read outwards from the residue. No end group written: not given here. *: point of attachment. C18 diacid = O=C(O)CCCCCCCCCCCCCCCCC(=O)*; C16 diacid = O=C(O)CCCCCCCCCCCCCCC(=O)*; γGlu = O=C(O)[C@H](CCC(=O)[*:2])N[*:1]; Glutaryl = O=C(CCCC(=O)[*:2])[*:1]; Nle = CCCC[C@H](N)C(=O)O; AEEA = NCCOCCOCC(=O)O; Aib = CC(C)(N)C(=O)O

How the values were obtained:
human GIP receptor [1] = target: T1, human GIP receptor (Homo sapiens, UniProt P48546); test: cAMP assay Alternative 1 (CisBio assay), GIPR antagonism; format: cell-based; conditions: Table 2B; % inhibition of Emax
T1 construct: host or cells: HEK-293 cells, transient transfection (Lipofectamine 2000), cDNA in pCMV-Script vector
T1 sequence (P48546 22-466): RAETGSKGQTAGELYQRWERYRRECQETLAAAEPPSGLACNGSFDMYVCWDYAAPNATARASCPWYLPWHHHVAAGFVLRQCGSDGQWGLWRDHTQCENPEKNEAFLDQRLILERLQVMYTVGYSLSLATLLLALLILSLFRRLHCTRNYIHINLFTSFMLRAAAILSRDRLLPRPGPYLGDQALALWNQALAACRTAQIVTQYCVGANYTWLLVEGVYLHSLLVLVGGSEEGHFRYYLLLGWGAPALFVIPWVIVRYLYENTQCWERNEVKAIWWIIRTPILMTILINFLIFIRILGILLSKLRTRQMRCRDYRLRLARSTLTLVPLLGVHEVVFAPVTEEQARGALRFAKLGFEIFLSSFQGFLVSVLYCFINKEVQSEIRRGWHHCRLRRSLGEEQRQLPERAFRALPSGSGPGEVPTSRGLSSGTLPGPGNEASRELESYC
Procedure: HEK293 cells were cultured in 10% CO2 and 37° C. in Dulbecco's modified Eagle's medium supplemented with 10% fetal bovine serum, 2 mM glutamine, 180 units/ml penicillin, and 45 µg/ml streptomycin. Transient transfection with hGIPR for the CisBio assay from Table 2C was performed by using Lipofectamine 2000.
The in vitro functional activity of compounds towards human GIP receptor can also be determined in HEK-293 cells transiently expressing the receptor. On the day of the assay, cells were resuspended in HBSS buffer (Gibco, 14025-50) supplemented with […] (Gibco, 15630-106), 0.1% Pluronic F-68 (Gibco, 24040-032) and 0.1% casein (Sigma, C4765), and plated in 384-well plates at a density of 5000 cells/well. The GIP peptide analogues of the present disclosure were diluted in HBSS buffer supplemented with 20 mM HEPES, 0.1% pluronic, 0.1% casein and 500 uM IBMX. […] The resulting decrease in intracellular cAMP was quantitatively determined using the CisBio cAMP Dynamic 2 HTRF Assay Kit. The assay is based on a competition between native cAMP produced by cells and cAMP labeled with the dye d2 for binding to a cryptate labeled antibody. The specific signal (i.e. energy transfer signal) is inversely proportional to the concentration of cAMP in the sample.
The cAMP-d2 conjugate and the antibody anti-cAMP-Cryptate, both diluted in lysis buffer provided in the kit, were added to the cells according to the manufacturer's protocol. The resulting competitive assay was incubated for 60 minutes at room temperature, and the signal was detected by using a PerkinElmer Envision® instrument with excitation at 320 nm and emission at 665 nm and 620 nm. The HTRF ratio (emission at 665 nm/620 nm*10,000) is inversely proportional to the amount of cAMP present and is converted to nM cAMP per well using a cAMP standard curve. The dose-response curves were fitted using the non-linear regression analysis (four-logistic parameter equation) in GraphPad Prism, whereby pIC50 values were estimated. To test for agonistic properties at the GIP receptor, compounds were diluted and added to cells as described above and incubated for 30 min at 37° C. The resulting increase in intracellular cAMP was determined using the CisBio cAMP Dynamic 2 HTRF Assay Kit as described above.
The dose-response curves were fitted using the non-linear regression analysis (four-logistic parameter equation) in GraphPad Prism, whereby pIC50 values were estimated.

human GIP receptor [2] = target: T2, human GIP receptor (human, UniProt P48546 22-466); test: cell-based or functional assay
T2 sequence (looked up): T1 sequence (P48546 22-466)

## CCCC[C@H](NC(=O)[C@H](C)NC(=O)[C@@H](NC(=O)[C@H](CO)NC(=O)[C@H](Cc1ccc(O)cc1)NC(=O)[C@H](CC(=O)O)NC(=O)[C@H](CO)NC(=O)[C@@H](NC(=O)[C@H](Cc1ccccc1)NC(=O)[C@@H](NC(=O)CNC(=O)CCCC(=O)O)[C@@H](C)O)[C@@H](C)CC)[C@@H](C)CC)C(=O)N[C@@H](CC(=O)O)C(=O)N[C@@H](CCCCN)C(=O)N[C@H](C(=O)N[C@@H](CCCCNC(=O)COCCOCCNC(=O)COCCOCCNC(=O)CC[C@H](NC(=O)CCCCCCCCCCCCCCCCC(=O)O)C(=O)O)C(=O)N[C@@H](CCC(N)=O)C(=O)N[C@@H](CCC(N)=O)C(=O)N[C@@H](CC(=O)O)C(=O)N[C@@H](Cc1ccccc1)C(=O)N[C@H](C(=O)N[C@@H](CCC(=O)O)C(=O)N[C@@H](Cc1c[nH]c2ccccc12)C(=O)N[C@@H](CC(C)C)C(=O)N[C@@H](CC(C)C)C(=O)N[C@@H](C)C(=O)N[C@@H](CCC(N)=O)C(=O)N[C@@H](CCCCN)C(=O)N1CCC[C@H]1C(=O)N[C@@H](CO)C(=O)N[C@@H](CO)C(=O)NCC(=O)N[C@@H](C)C(=O)N1CCC[C@H]1C(=O)N1CCC[C@H]1C(=O)N1CCC[C@H]1C(=O)N[C@@H](CO)C(=O)O)C(C)C)[C@@H](C)CC [AT702] (Glutaryl-GTFISDYSIA[Nle]DKIK([AEEA-AEEA-γGlu-C18 diacid])QQDFVEWLLAQKPSSGAPPPS-OH)
Human GIP receptor [1]
  cAMP antagonism % inhib: 85%

B1: AT694 (peptide)
peptide: EGTFISEYSIA[Nle]EKIK([AEEA-AEEA-γGlu-C18 diacid])QQEFVEWLLAQKPSSGAPPPS-OH
modifications: N-terminus assumed
SMILES: CCCC[C@H](NC(=O)[C@H](C)NC(=O)[C@@H](NC(=O)[C@H](CO)NC(=O)[C@H](Cc1ccc(O)cc1)NC(=O)[C@H](CCC(=O)O)NC(=O)[C@H](CO)NC(=O)[C@@H](NC(=O)[C@H](Cc1ccccc1)NC(=O)[C@@H](NC(=O)CNC(=O)[C@@H](N)CCC(=O)O)[C@@H](C)O)[C@@H](C)CC)[C@@H](C)CC)C(=O)N[C@@H](CCC(=O)O)C(=O)N[C@@H](CCCCN)C(=O)N[C@H](C(=O)N[C@@H](CCCCNC(=O)COCCOCCNC(=O)COCCOCCNC(=O)CC[C@H](NC(=O)CCCCCCCCCCCCCCCCC(=O)O)C(=O)O)C(=O)N[C@@H](CCC(N)=O)C(=O)N[C@@H](CCC(N)=O)C(=O)N[C@@H](CCC(=O)O)C(=O)N[C@@H](Cc1ccccc1)C(=O)N[C@H](C(=O)N[C@@H](CCC(=O)O)C(=O)N[C@@H](Cc1c[nH]c2ccccc12)C(=O)N[C@@H](CC(C)C)C(=O)N[C@@H](CC(C)C)C(=O)N[C@@H](C)C(=O)N[C@@H](CCC(N)=O)C(=O)N[C@@H](CCCCN)C(=O)N1CCC[C@H]1C(=O)N[C@@H](CO)C(=O)N[C@@H](CO)C(=O)NCC(=O)N[C@@H](C)C(=O)N1CCC[C@H]1C(=O)N1CCC[C@H]1C(=O)N1CCC[C@H]1C(=O)N[C@@H](CO)C(=O)O)C(C)C)[C@@H](C)CC
Human GIP receptor [2]
  cAMP antagonism % inhib (CisBio assay): 88%
  cAMP antagonism nM (IC50, CisBio assay): 1.47 nM
  cAMP antagonism pIC50 (CisBio assay): 8.8

B2: AT696 (peptide)
peptide: EGTFISEYSI[Aib][Nle]EKIK([AEEA-AEEA-γGlu-C18 diacid])QQEFVEWLLAQKPSSGAPPPS-OH
modifications: N-terminus assumed
SMILES: CCCC[C@H](NC(=O)C(C)(C)NC(=O)[C@@H](NC(=O)[C@H](CO)NC(=O)[C@H](Cc1ccc(O)cc1)NC(=O)[C@H](CCC(=O)O)NC(=O)[C@H](CO)NC(=O)[C@@H](NC(=O)[C@H](Cc1ccccc1)NC(=O)[C@@H](NC(=O)CNC(=O)[C@@H](N)CCC(=O)O)[C@@H](C)O)[C@@H](C)CC)[C@@H](C)CC)C(=O)N[C@@H](CCC(=O)O)C(=O)N[C@@H](CCCCN)C(=O)N[C@H](C(=O)N[C@@H](CCCCNC(=O)COCCOCCNC(=O)COCCOCCNC(=O)CC[C@H](NC(=O)CCCCCCCCCCCCCCCCC(=O)O)C(=O)O)C(=O)N[C@@H](CCC(N)=O)C(=O)N[C@@H](CCC(N)=O)C(=O)N[C@@H](CCC(=O)O)C(=O)N[C@@H](Cc1ccccc1)C(=O)N[C@H](C(=O)N[C@@H](CCC(=O)O)C(=O)N[C@@H](Cc1c[nH]c2ccccc12)C(=O)N[C@@H](CC(C)C)C(=O)N[C@@H](CC(C)C)C(=O)N[C@@H](C)C(=O)N[C@@H](CCC(N)=O)C(=O)N[C@@H](CCCCN)C(=O)N1CCC[C@H]1C(=O)N[C@@H](CO)C(=O)N[C@@H](CO)C(=O)NCC(=O)N[C@@H](C)C(=O)N1CCC[C@H]1C(=O)N1CCC[C@H]1C(=O)N1CCC[C@H]1C(=O)N[C@@H](CO)C(=O)O)C(C)C)[C@@H](C)CC
Human GIP receptor [2]
  cAMP antagonism % inhib (CisBio assay): 97%
  cAMP antagonism nM (IC50, CisBio assay): 0.584 nM
  cAMP antagonism pIC50 (CisBio assay): 9.2

B3: AT695 (peptide)
peptide: EGTFISEYSI[Aib]LEKIK([AEEA-AEEA-γGlu-C18 diacid])QQEFVEWLLAQKPSSGAPPPS-OH
modifications: N-terminus assumed
SMILES: CC[C@H](C)[C@H](NC(=O)[C@H](CCCCN)NC(=O)[C@H](CCC(=O)O)NC(=O)[C@H](CC(C)C)NC(=O)C(C)(C)NC(=O)[C@@H](NC(=O)[C@H](CO)NC(=O)[C@H](Cc1ccc(O)cc1)NC(=O)[C@H](CCC(=O)O)NC(=O)[C@H](CO)NC(=O)[C@@H](NC(=O)[C@H](Cc1ccccc1)NC(=O)[C@@H](NC(=O)CNC(=O)[C@@H](N)CCC(=O)O)[C@@H](C)O)[C@@H](C)CC)[C@@H](C)CC)C(=O)N[C@@H](CCCCNC(=O)COCCOCCNC(=O)COCCOCCNC(=O)CC[C@H](NC(=O)CCCCCCCCCCCCCCCCC(=O)O)C(=O)O)C(=O)N[C@@H](CCC(N)=O)C(=O)N[C@@H](CCC(N)=O)C(=O)N[C@@H](CCC(=O)O)C(=O)N[C@@H](Cc1ccccc1)C(=O)N[C@H](C(=O)N[C@@H](CCC(=O)O)C(=O)N[C@@H](Cc1c[nH]c2ccccc12)C(=O)N[C@@H](CC(C)C)C(=O)N[C@@H](CC(C)C)C(=O)N[C@@H](C)C(=O)N[C@@H](CCC(N)=O)C(=O)N[C@@H](CCCCN)C(=O)N1CCC[C@H]1C(=O)N[C@@H](CO)C(=O)N[C@@H](CO)C(=O)NCC(=O)N[C@@H](C)C(=O)N1CCC[C@H]1C(=O)N1CCC[C@H]1C(=O)N1CCC[C@H]1C(=O)N[C@@H](CO)C(=O)O)C(C)C
Human GIP receptor [2]
  cAMP antagonism % inhib (CisBio assay): 98%
  cAMP antagonism nM (IC50, CisBio assay): 0.794 nM
  cAMP antagonism pIC50 (CisBio assay): 9.1

## Glutaryl-GTFISDYSIA[Nle]DKIK([AEEA-AEEA-γGlu-C18 diacid])QQDFVEWLLAQKPSSGAPPPS-OH [AT702]
Human GIP receptor [2]
  cAMP antagonism % inhib (CisBio assay): 85%
  cAMP antagonism nM (IC50, CisBio assay): 3.55 nM
  cAMP antagonism pIC50 (CisBio assay): 8.5

## Glutaryl-GTFISDYSIA[Nle]DKIK(C16 diacid)QQDFVEWLLAQKPSSGAPPPS-OH [AT700]
Human GIP receptor [2]
  cAMP antagonism % inhib (CisBio assay): 89%
  cAMP antagonism nM (IC50, CisBio assay): 0.708 nM
  cAMP antagonism pIC50 (CisBio assay): 9.2
